From the DeepSol protein solubility set come the findings set out here.

The series in a line: soluble on expression in E. coli; label from the status in PepcDB or PDB records.
As for “MSLAESRLTKLGQELAADKEFSSLERFADLVEKLQASLEIDATTLAAILLKRQQGKRPLFYVGADPMIEAMEREKSRRRERRDDRRDGDRPARREFGGRDQENHDWDTYQLQVGRDQGVQVKDIVGALANELGLTKGSIGAIKLAQGHTFVQLPKAMSNDVSSKLRKLRIRQKEVGAVVCDFDDFRESRGGARREGGPRREGGRRPEGNREGGFRGGREGGREGGRGRGGEGRPFREGERRFERNRSGESSGSYRGERGHSRRREEAEGHHHHHH”, the “soluble on expression in E. coli” value was “not soluble”.
As for “MSLAFHEGLAAHLATGVTTTCHAWAIDRADGVVMGFTDHDRGLVFEGIDFRADSGLSALALQRGTGLAVDNSEAIGALTDAAIREADIDAGRFDGAGVRAWLVNWTDVAQRQLMFRGTIGEIRRAGGAFTAELRGLTEALNQPRGRVYQTPCGAVLGDAACGVDLGAPGYAAEAEVLGVEEGQRLVLPGLPDFEAGWFARGRLVVLDGAAEGLSGVVKRDVIAEGARHVDLWQALRAPLSVGDRIRIEAGCDKRMETCRYKFNNLLNYQGFPDIPGEDWMTVMPAQSGATGGGSRREGHHHHHH”, the entry is “soluble”; as for “MSLAFRTLSFGIKRSQPKKKDADDLNKKKELSTITEESLRRYDELREKMIGKVESKIEKKVKKNKKKASIEILASRKRVHDSDGDSENEVEETVGDVEKRMQKLLDDIRRTNRIFTWGDHLPNIILRFSDSSMSPSLLNRLSENSIRQPSPIQMQSIPFMTERRNVLASAPTGSGKTLAFALPVIDEILELKQRADYSSSNSSKLLAVVLEPTRELAAQTYTEFLKYCANTSISAANFSGEETDIQHADILVSTPNRIVFHLDKIDTSSLRWLVVDESDRLFEVVEGQDKCFRNQLAAIYKACDAKCTRVAFFSATFSHEVEKWCKENIDEIGMVCVGERNSSNTSVKQKLTYCGTEDGKKIAIRNLLRTSFKPPALVFVQSKDRAVQLVKLLSAIDSNLKVDSINSGKSDKERDETMERFRRGEIWVLVCTELLGRGLDLSDVGLVINYDLPTSIVSYIHRVGRTGRAGKSGHAVTYFTDADMKYIKSIATVIRQSGFDVPEYLMEMKKVSRDRKKDMLKHAPKRHKIAIVKEQVIKKKKMLAKAAAEEKAKNKTETQTAEKPEKKIKKKKLIKKNNKNI”, “not soluble”.
Next, “MSLAIKMLAIDLDGTLLTDSKTILPGTYKALQEAKAAGIKIVLTSGRPLSGIKGYAEELGLSGSEEYAILFNGAVVQNLDGRVLISHDLDFGDFNTLLHMQRLSDVNLDFETPDRFYTLDKRISIRLQIDGAETKNQLWIQDRSDFKKDFTFAKAVYQCDDPDQVDRLWNRLPDWFFQSYAVVRSWPEVVEVGSLAASKGYAVSELASRLGLSNSEVMIFGDQGNDRSMFEIPDFKRVAMGNAIDEIKDLADYVTDTNERDGIAKALRKLVLEGHHHHHH”: “soluble”.
Next, “MSLAIQPLAYRMRPKALDEIVGQTHLVGKDKIIYRMVKAKQLSSMILYGPPGIGKTSIASAIAGSTKYAFRTLNAVTNNKKDMEVVAAEAKMSGTVILLLDEVHRLDKAKQDFLLPLLESGAIILIGATTSNPYIAINPAIRSRTQIFELKPLTVEDIMITMDRALSDKERGLGNYDVEIDEVAKKHFATASNGDVRSALNALELAVISSEPNEDGVIHITLDVAEECLQKKSLAHDKDGDAHYDVLSAFQKSVRGSDVNAALHYMGRLIEAGDLVSISRRMLVMAYEDIGLASPQAGAHTLAAIQTAEKVGFPEARIPLANAVIELCLSPKSNSAIMAIDAALADIRQGKSGEVPDHLRDGHYSGAEKLGRAIDYKYPHNYDNAWVDQQYLPDRLKNKLYYAPKFTSKFEQTIAGVYQKINENKAKKEGHHHHHH”: “soluble”; “MSLAIRNVVFDVGNVIVKWAPQDIAQLTFGEGEESAFMATAVFKSEFWRDLNKGKYTEAEVKRALHQQLGLSSDTLEQLFFHIKNTQVLLPGTLQLMDDLLKAGYRLYALTDNVNEIVAYLKKQYGFWPKFTGAVVSSECGLLKPDPAIYQHLADSQRILPQESVFMDDMPANVEGARQQGFHAIQFVDAHQARVQLAQMGLHFKGQHFGEGHHHHHH”: “soluble”; “MSLAKKKEIKLEDALWKSADKLRKNIDAAEYKHIVLGLIFLRYISDSFMQKYEELLKEQDDGADPEDADEYLADNIFFVPEKSRYNYIRDNAKNPKIGKMLDEAMDEIEKHNDTLKGVLPKVYAKDNLDSKCLGELIDLIGNIAFDTGKSTDVLGHVFEYFLGEFALAEGKQGGQFYTPKCVVELLVTMLEPYKGRVFDPCCGSGGMFVQSEEFVKSHQGRLDDISIYGQESNQTTYKLAKMNLAIRKIESSQVIWNNEGSFLNDAHKDLKADFIIANPPFNDSDWSGELLENDGRWKYGVPPASNANYAWIQHFLYHLSPNGGVAGFVLAKGALTSNTTNEAAIRKALIEDDLIDCIVNLPAKLFLNTGIPASLWFIRRQKLPKTVKKTLFIDARDLGTRINRRNKTLNKDDINQIANIYKAWKNGTDYEDIKGFCKSVSIDEIRELSYVLTPGRYVGLADSDDEFDFDTRFNELLAKLKSQIKTEQELSEIILKNLEKIKEGHHHHHH”: “soluble”.
“MSLALNPAVAPIKSIEFIPVNYQASNWSQNTVVVKVTDENGVYGLGEADGSPDAILAYANIETEHKWLTNITEKAIGRLPIEINAIWDAMYDATQWQGMRGLGMFALSGIDMALYDLAGKQLGVPAYQLLGGTNKDKVHPYLTLYPAIPVDASLDVAIKGYAPLLEKAKAHNIRAVKVCVPIKADWSTKEVAYYLRELRGILGHDTDMMVDYLYRFTDWYEVARLLNSIEDLELYFAEATLQHDDLSGHAKLVENTRSRICGAEMSTTRFEAEEWITKGKVHLLQSDYNRCGGLTELRRITEMATANNVQVMPHNWKTGITSAAAIHYQFAVGNAPYFEYVHPEFCDGELRKYLVTPEAELVDGGFAKPTAPGLGIDLNQEFLASLEGHHHHHH”: the “soluble on expression in E. coli” value was “soluble”.
For “MSLAMQDFRPGVYRHYKGDHYLALGLARADETDEVVVVYTRLYARAGLPMSTRLLRIWNETVDTGAGPQPRFAYVGHVTPEQGEGHHHHHH”, the “soluble on expression in E. coli” value is “soluble”.
Next, “MSLAQGIIENHLSKRSALLEQEKTSRHDYAFKQSMSPVAKTAAKVLADIRKKELKSIWSPTTTSNEKRDLKDVTFPGMSFTLSRDRMQKTALWKIVSAMPKGCLLHAHMEAMIDIDWMIEQAIELPGYYISSPVPLCPRTGSAGKWSEPFQFSYRPRLGSGANARNGSEPEISIWQAGYTPGRLVPVAAAAKMYPGGVEAFKAWAVSRMTINEEEALEHHHGIDDVWDKFRSCFLAIGGLFFTEPIFRRCIPRLLQQLHDDGIKYVELRLAPNPFYREGSNEAEPDFLYFLQCFQEEVDAYMSSPTGRGFWGAKIIWTAIRSFPDDLIKESMIHCLNSKKAYPSVITGFDFVGQEDAGRPLVDLLPLCKWFQQQCADEQLQIPFFLHAGECLGDGNDTDSNLVDAILLNSRRIGHAFSLYKHPLLIDLVKDKNILIEMCPISHEVLRLTSNILMHPMPALQARGVAVSLNNDDPAVLGHGKNGLSHDFYQVTAAFENTGLAGLATMAEDSIRWAAFEDETDSEWLQGIDGKGNGLKASRLAEWRTAFDEWCAWVVQEFGAESQIEGHHHHHH”: “soluble”.
“MSLAQHPTGIHHLAFMAGDIKKHIAFFSDVMGCPLVALFDMHGVPGGLHAFLRMNDHSYFSIVQLPDVDKIPVQLGVTHAGNGARPSAPGTLQHLAFRADTEDALLALRDRIRSHGINVLGPIDHGMCRSIYFAGPDQMTLEVACSSETIDEGHHHHHH”: the “soluble on expression in E. coli” value was “soluble”.
As for “MSLAQTNPNSKGDQQKMINIAHRGASGHAPENTMAAFQKGFDMKVDYIEFDVHMTKDGELVLMHDLTVDRTTNGHGYVSDLTLDEIKQFDAGSWFHEDFVGEKVPTFEETLDVFRGKVGLLIELKSPERYPGMEEKVAEALKERKMDRSSNHKVIIQSFNHESMKKSKELLPHIPHGVLAGPSWANVTDEQLEEFSTYADYFNPNMTIVTPELVSRIHAVGMKIFPYTSRTQEQANRLFELKVDGIITDFPEHVYFHPVKNQEGHHHHHH”, the entry is “not soluble”; as for “MSLAREPRNIGASVRARLLDRARAERSDFQILLTRYALERLLYRLSASPHRDRFILKGAMLFVTWIADPFRPTRDLDLLGHGDRDTEAIAETFRAICAQPVVDDGVTFDVAALMATPIREELEYGGVRVRTTATIAGARIPIQVDIGFGDAITPAAVEIDYPTLLDAPTPHLRAYPVETVVAEKFAALVTLGVANSRLKDFYDLWVISRTFELRRAALAEAIQRTFERRGTVLPSVVPVGLTDEFAETWAAQWRAFLERDRMAAAPDAFAVTVADLRLFLMPLVVGLKEERIWPPSGPWSPGAAIDEAEGHHHHHH”, “soluble”.
